For assay [1], the target named is CD32A^H (UniProt P12318). The experiment in a line: SPR (BIACORE); koff compared with wild-type Fc. (In SPR one partner is held on a chip, and binding of the other changes the refractive index at the surface.)
The target of assay [2] is soluble human FcγRIIB (human) (UniProt P31994). The experiment in a line: SPR (BIACORE); koff compared with wild-type Fc.
Assay [3] has as its target soluble human FcγRIIIA V158 (human) (UniProt P08637). Put plainly: SPR (BIACORE); koff compared with wild-type Fc.
The target in assay [4] is soluble human FcγRIIIA F158 (human) (UniProt P08637). The experiment in a line: SPR (BIACORE); koff compared with wild-type Fc.
The target of assay [5] is soluble human FcRn (human) (UniProt P55899). The experiment in a line: SPR (Biacore 3000); ch4420 captured on protein-FITC surface; 500 nM hFcRn injected; pH 6.0.
Sequence of UniProt P55899 (P55899 24-297 limits assumed, chain 1 of 2): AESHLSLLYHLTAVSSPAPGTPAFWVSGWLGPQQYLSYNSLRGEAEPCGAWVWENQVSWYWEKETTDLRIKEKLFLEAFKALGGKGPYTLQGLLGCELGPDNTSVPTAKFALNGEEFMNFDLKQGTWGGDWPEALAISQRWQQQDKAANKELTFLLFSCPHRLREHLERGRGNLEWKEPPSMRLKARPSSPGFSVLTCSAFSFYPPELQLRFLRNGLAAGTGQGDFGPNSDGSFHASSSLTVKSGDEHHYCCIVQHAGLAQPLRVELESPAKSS
Sequence of UniProt P55899 (P61769 21-119 limits assumed, chain 2 of 2, further chain): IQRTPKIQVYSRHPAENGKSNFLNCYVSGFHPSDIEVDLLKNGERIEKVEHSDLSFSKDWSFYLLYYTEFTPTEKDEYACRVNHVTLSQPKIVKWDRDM

Where only a bound is given, the exact number is not on record here.

Sequence of UniProt P31994 (P31994 43-217 limits assumed): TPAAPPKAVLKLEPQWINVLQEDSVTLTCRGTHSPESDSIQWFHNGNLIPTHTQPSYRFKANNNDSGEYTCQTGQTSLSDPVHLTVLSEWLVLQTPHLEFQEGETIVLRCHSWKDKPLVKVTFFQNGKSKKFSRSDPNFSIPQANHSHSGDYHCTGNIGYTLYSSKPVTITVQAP
Sequence of UniProt P12318 (P12318 34-217 limits assumed): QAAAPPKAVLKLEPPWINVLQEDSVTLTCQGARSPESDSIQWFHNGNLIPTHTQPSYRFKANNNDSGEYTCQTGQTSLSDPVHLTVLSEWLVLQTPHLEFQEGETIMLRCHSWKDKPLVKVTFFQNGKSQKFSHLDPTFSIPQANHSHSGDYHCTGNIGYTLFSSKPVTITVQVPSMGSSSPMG

In the case of Fc mutant 1 (F243L), the ratio WT koff/mutant koff worked out at 0.6 fold in assay [1], 0.8 fold in assay [2] and 4.8 fold in assay [3].
With Fc mutant 2 (D270E), the ratio WT koff/mutant koff in assay [1] was determined as 2.2 fold; in assay [2], 0.4 fold; in assay [3], 1.3 fold.
For Fc mutant 3 (R292P), the ratio WT koff/mutant koff in assay [1] came out at 0.7 fold; in assay [2], 0.3 fold; in assay [4], 1.6 fold; in assay [3] it was 2.4 fold.
Take Fc mutant 4 (S298N): in assay [2], the ratio WT koff/mutant koff is 0.2 fold.
Fc mutant 5 (Y300L): the ratio WT koff/mutant koff in assay [1] is 2.9 fold; in assay [2], 1.2 fold; in assay [4] it was 1.2 fold.
For the substance Fc mutant 6 (V305I), the ratio WT koff/mutant koff was determined as 1.3 fold in assay [1], 1.2 fold in assay [2], 0.6 fold in assay [4] and 0.9 fold in assay [3].
The matching figures for Fc mutant 7 (A330V): 0.4 fold, 0.3 fold, 1.2 fold and 0.6 fold.
Turning to Fc mutant 8 (P396L), the ratio WT koff/mutant koff in assay [1] amounted to 1.6 fold; in assay [2] it was 2.6 fold; in assay [3] it was 1.3 fold.
As for Fc mutant 9 (F243L P396L), the ratio WT koff/mutant koff in assay [1] came out at 1.5 fold; in assay [2] it was 1.6 fold.
Regarding Fc mutant 10 (F243L R292P), the values for the ratio WT koff/mutant koff in assay [1], in assay [2] and in assay [3] were 0.5 fold, 0.2 fold and 4 fold, respectively.
Consider Fc mutant 11 (R292P V305I), for which the ratio WT koff/mutant koff was determined as 0.8 fold in assay [1] and 0.4 fold in assay [2].
Consider Fc mutant 12 (F243L R292P Y300L), for which the ratio WT koff/mutant koff was 1 fold in assay [1], 0.6 fold in assay [2], 4.6 fold in assay [4] and 7.4 fold in assay [3].
On to Fc mutant 13 (F243L R292P V305I), for which the ratio WT koff/mutant koff came to 0.2 fold in assay [1], 0.1 fold in assay [2], 1.4 fold in assay [4] and 2.6 fold in assay [3].
For Fc mutant 14 (F243L R292P P396L), the ratio WT koff/mutant koff in assay [1] is 1.4 fold; in assay [2], 0.4 fold; in assay [3] it was 6.3 fold.
Take Fc mutant 15 (R292P V305I P396L): the ratio WT koff/mutant koff in assay [1] came out at 1.5 fold; in assay [2], 0.9 fold; in assay [4], 1.9 fold; in assay [3] it was 1.9 fold.
Regarding Fc mutant 16 (F243L R292P Y300L P396L), the ratio WT koff/mutant koff came out at 1.7 fold in assay [1], 1.1 fold in assay [2], 5.6 fold in assay [4] and 10.1 fold in assay [3].
Consider Fc mutant 17 (F243L R292P V305I P396L), for which the ratio WT koff/mutant koff was determined as 0.8 fold in assay [1], 0.4 fold in assay [2], 2.3 fold in assay [4] and 4 fold in assay [3].
For the substance “Fc mutant 18 (F243L R292P Y300L V305I P396L)”, the ratio WT koff/mutant koff in assay [1] amounted to 3.2 fold; in assay [2], 1.4 fold; in assay [4] it was 8.3 fold; in assay [3], 10.1 fold.
The substance ch4420 variant H435K (antibody) yielded a fold increase of binding response over wild type in assay [5] of under 4 fold.

The values above are taken from patent publication US20190010243A1.
